Substitutions are numbered along the chain they refer to.
B1: CTLA4 heavy chain single domain antibody No. C27 (VHH)
VHH: QVQLQESGGGSVQAGGSLRLSCAASGYIYSAYCMGWFRQAPGKERVGVAAISIGGGSTYYADSVKGRFTISQDNAKNTLYLQMNSLKPEDTAMYYCAADVIPTETCLGGSWSGPFGYWGQGTQVTVSS
notes: Camel VHH expressed in E. coli (PET32b), nickel-purified
B2: CTLA4 heavy chain single domain antibody No. C1 (VHH)
VHH: B1 VHH with R19G, V46E, S52Y, I53L, N74I, Y95S
notes: Camel VHH expressed in E. coli (PET32b), nickel-purified, detected by anti-His tag antibody
B3: CTLA4 heavy chain single domain antibody No. 155 (VHH)
VHH: QVQLQESGGGPVQAGGSLRLSCAVSKYPYSGSCMGWFRQAPGKEREGVAAMFTGTGSTYYADSVKGRFTISQNVAKNTLDLQMNSLKPEDTAMYYCAVDLLPRSTRCLDYGLRTYNYWGQGTQVTVSS
notes: as for B1
B4: CTLA4 heavy chain single domain antibody No. 145 (VHH)
VHH: QVQLQESGGGSVQAGGSLRLSCAASGYTYSSYSMGWFRQAAGKEREGVAAIDSDGSTSYADSVKGRFTISQDNAKNTLYLQMNSLEPEDTAMYYCAATAGWYAARHALSPLFFGYWGQGTQVTVSS
notes: as for B1

Key:
CTLA4-Fc fusion protein [1] = target: T1, CTLA4-Fc fusion protein (human, biotinylated where used as CTLA4-Fc-Biotin (Examples 5.1-5.3)); experiment: ELISA, CTLA4-Fc coated, 10 ng VHH/well
T1 construct: expressed in HEK293 cells; also called human CTLA4-Fc protein; CTLA4-Fc antigen protein
Method: (§1) Plates were coated with CTLA4-Fc fusion protein overnight at 4° C. and 10 ng of the heavy chain single-domain antibody obtained in Example 2.1 (the control was a single domain antibody not binding to the CTLA4-Fc protein) was added to each well and allowed to react for 1 hour at room temperature. After washing, primary antibody anti-His tag antibody (purchased from Beijing Kangwei Century Biotechnology Co., Ltd.) was added and reacted for 1 hour at room temperature. After washing, a secondary goat anti-mouse horseradish peroxidase-labeled antibody (Yiqiao Shenzhou, Cat: SSA007200) was added and reacted for 1 hour at room temperature. After washing, chromogenic agent was added and the absorbance was read at 405 nm.

Fc protein = target: T2, Fc protein; experiment: ELISA, Fc protein coated, 10 ng VHH/well
T2 construct: Counter-screen for the Fc part of CTLA4-Fc
Method: (§2) Plates were coated with Fc protein overnight at 4° C. and 10 ng of the heavy chain single domain antibody obtained in Example 2.1 was added to each well (control was a single domain antibody against other unrelated targets) and allowed to react for 1 hour at room temperature. After washing, an rabbit anti-human Fc antibody (purchased from Shanghai Pu Xin Biotechnology Co., Ltd.) was added and reacted for 1 hour at room temperature. After washing, goat anti-rabbit horseradish peroxidase labeled antibody (purchased from Shanghai Pu Xin Biotechnology Co., Ltd.) was added and reacted at room temperature for 1 hour. After washing, chromogenic agent was added and the absorbance was read at 405 nm.

CTLA4-Fc fusion protein [2] = target: T1, CTLA4-Fc fusion protein; experiment: ELISA OD ratio, value equals OD(CTLA4)/OD(blank)
Method: as §1

Mouse CTLA4-Fc protein [3] = target: T3, Mouse CTLA4-Fc protein (mouse, biotinylated (mCTLA4-Fc-Biotin)); experiment: ELISA, VHH coated 0.5 µg/well, mCTLA4-Fc-Biotin, SA-HRP
T3 construct: also called mCTLA4-Fc-Biotin; mouse CTLA4-Fc fusion protein
Method: (§3) Thereafter, SA-HRP (purchased from Sigma) was added, and the mixture was reacted at room temperature for 1.5 hours. After washing, chromogenic agent was added and the absorbance was read at 405 nm.

Mouse CTLA4-Fc protein [4] = target: T3, Mouse CTLA4-Fc protein; experiment: ELISA, VHH coated 0.5 µg/well, mouse CTLA4-Fc (biotinylated), SA-HRP; blank 0.027
Method: as §3

CTLA4-Fc fusion protein [5] = target: T1, CTLA4-Fc fusion protein; experiment: competitive ELISA, CTLA4-Fc coated, VHH series with 250 ng/mL CD80-Fc-Biotin
Method: (§4) SA-HRP (purchased from Sigma) was added and allowed to react for 1 hour at room temperature. After adding chromogenic solution, absorbance was read at 405 nm wavelength.

CTLA4-Fc fusion protein [6] = target: T1, CTLA4-Fc fusion protein; experiment: ELISA OD ratio, value equals OD(CTLA4)/OD(Fc)
Method: as §1, §2

CTLA4-Fc fusion protein [7] = target: T1, CTLA4-Fc fusion protein; experiment: competitive ELISA: CD80-Fc-Biotin signal on coated CTLA4-Fc with 500 ng VHH/well; competitor CD80-Fc-Biotin
Method: as §4

CTLA4-Fc fusion protein [8] = target: T1, CTLA4-Fc fusion protein; experiment: ELISA, VHH coated 0.5 µg/well, dilution series of CTLA4-Fc, anti-human IgG-Fc HRP; antibody No. C27
Method: (§5) The plates were coated with the obtained CTLA4 heavy chain single-domain antibody at 0.5 μg/well overnight at 4° C. followed by addition of a gradient dilution series of CTLA4-Fc fusion protein and allowed to react for 1 hour at room temperature. After washing, goat anti-human IgG-Fc horseradish peroxidase labeled antibody (lakepharma) was added and allowed to react for 1 hour at room temperature. After washing, horseradish peroxidase c chromogenic solution was added and the absorbance was read at a wavelength of 405 nm.

CTLA4-Fc fusion protein [9] = target: T1, CTLA4-Fc fusion protein; experiment: ELISA, VHH coated 0.5 µg/well, dilution series of CTLA4-Fc, anti-human IgG-Fc HRP; antibody No. C1
Method: as §5

CTLA4-Fc fusion protein [10] = target: T1, CTLA4-Fc fusion protein; experiment: ELISA, VHH coated 0.5 µg/well, dilution series of CTLA4-Fc, anti-human IgG-Fc HRP; antibody No. 155
Method: as §5

CTLA4-Fc fusion protein [11] = target: T1, CTLA4-Fc fusion protein; experiment: ELISA, VHH coated 0.5 µg/well, dilution series of CTLA4-Fc, anti-human IgG-Fc HRP; antibody No. 145 (printed as No. 14)
Method: as §5

Row | Binder | OD (against CTLA4) (CTLA4-Fc fusion protein [1]) [OD405] | OD (against Fc) (Fc protein) [OD405] | ODa/ODb (CTLA4-Fc fusion protein [2]) | binding result (Mouse CTLA4-Fc protein [3]) | OD (against mouse CTLA4) (Mouse CTLA4-Fc protein [4]) [OD405] | IC50 (CTLA4-Fc fusion protein [5]) [µg/mL] | ODa/OD blank (CTLA4-Fc fusion protein [6]) | OD (CTLA4-Fc fusion protein [7]) [OD405] | EC50 (CTLA4-Fc fusion protein [8]) [µg/mL] | EC50 (CTLA4-Fc fusion protein [9]) [µg/mL] | EC50 (CTLA4-Fc fusion protein [10]) [µg/mL] | EC50 (CTLA4-Fc fusion protein [11]) [µg/mL]
1 | B1 | 1.31 | 0.049 | 46.8 | no binding | 0.021 | ~0.731 | 26.7 | 0.04 | ~0.093 | – | – | –
2 | B2 | 1.2 | 0.053 | 42.9 | no binding | 0.042 | 0.852 | 22.7 | 0.054 | – | ~0.123 | – | –
3 | B3 | 1.72 | 0.051 | 61.6 | no binding | 0.032 | ~4.69 | 33.8 | 0.746 | – | – | ~0.013 | –
4 | B4 | 1.49 | 0.065 | 53.1 | no binding | 0.026 | ~1.95 | 22.9 | 0.597 | – | – | – | ~0.05

Reference: patent US20190315864A1 (SUZHOU ALPHAMAB, published 2019)
